B1: Claudin-2 (Homo sapiens), P57739 (parent)
chain: MASLGLQLVGYILGLLGLLGTLVAMLLPSWKTSSYVGASIVTAVGFSKGLWMECATHSTGITQCDIYSTLLGLPADIQAAQAMMVTSSAISSLACIISVVGMRCTVFCQESRAKDRVAVAGGVFFILGGLLGFIPVAWNLHGILRDFYSPLVPDSMKFEIGEALYLGIISSLFSLIAGIILCFSCSSQRNRSNYYDAYQAQPLATRSSPRPGQPPKVKSEFNSYSLTGYV

Variants of: B1
Conditions: with ap2m1_human AP2M1, Q96CW1
Sequence of ap2m1_human AP2M1, Q96CW1 (Q96CW1 whole entry): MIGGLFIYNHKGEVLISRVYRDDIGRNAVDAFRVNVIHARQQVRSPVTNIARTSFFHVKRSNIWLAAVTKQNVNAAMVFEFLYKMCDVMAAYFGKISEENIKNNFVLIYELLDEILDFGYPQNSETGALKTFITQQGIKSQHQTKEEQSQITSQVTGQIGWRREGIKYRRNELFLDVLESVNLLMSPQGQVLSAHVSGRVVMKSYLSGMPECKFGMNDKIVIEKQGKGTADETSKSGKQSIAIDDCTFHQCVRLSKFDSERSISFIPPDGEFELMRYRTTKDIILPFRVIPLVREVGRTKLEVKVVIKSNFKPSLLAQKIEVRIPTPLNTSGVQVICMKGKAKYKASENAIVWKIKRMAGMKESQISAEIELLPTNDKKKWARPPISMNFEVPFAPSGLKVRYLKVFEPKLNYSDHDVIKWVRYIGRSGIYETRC

| effect of a mutation on the interaction | Variant |
| --- | --- |
| disrupting interaction strength | Y67A;L70A |
| disrupting interaction strength | Y67A;L70A;Y148A;L151A |
| decreasing interaction strength | Y148A;L151A |

Variants of: B1
Conditions: with ap2m1_human AP2M1, Q96CW1
Remark: another data set of the same source

| effect of a mutation on the interaction | Variant |
| --- | --- |
| disrupting interaction | Y67A;L70A;Y148A;L151A |
